The results in this text go back to patent publication US20250382373A1 (BIOCYTOGEN PHARMACEUTICALS BEIJING, published 2025).

For test [1], the target named is T1, monkey EGFR on CHO-S-fasEGFR cells (monkey (crab-eating macaque; Macaca …, UniProt P55245 25-645). The test can be described thus: flow cytometry on CHO-S-fasEGFR cells. Also: test concentration or dose not given here. A general note: In flow cytometry, cells or beads pass a laser one at a time.
Test [2] addresses T2, human EGFR on CHO-S-hEGFR cells (human, UniProt P00533 25-645). The test can be described thus: flow cytometry on CHO-S-hEGFR cells.
Test [3] deals with T3, His-tagged monkey EGFR protein (monkey (crab-eating macaque; Macaca …, UniProt A0A2K5WK39 25-645).
T3 construct: also called fasEGFR-His; not shown: His tag
The test can be described thus: SPR (Biacore 8K), antibody on Protein A chip.

For test [4], the target named is T4, His-tagged human EGFR protein (human, UniProt P00533 25-645).
T4 construct: Bought protein; also called hEGFR-His; not shown: His tag
The test can be described thus: SPR (Biacore 8K), antibody on Protein A chip. Background: Surface plasmon resonance follows binding to a sensor surface in real time, without labels.

Test [5] concerns the target T3, His-tagged monkey EGFR protein. The test can be described thus: SPR (Biacore 8K), Protein A chip.
Test [6] concerns the target T4, His-tagged human EGFR protein. The test can be described thus: SPR (Biacore 8K), Protein A chip.
Test [7] concerns the target T5, His-tagged human MET protein (human, UniProt P08581 25-932).
T5 construct: Bought protein; also called hMET-His; not shown: His tag
The test can be described thus: SPR (Biacore 8K), Protein A chip.

In test [8] the target is T5, His-tagged human MET protein. The test can be described thus: SPR (Biacore 8K), antibody on Protein A chip.
The target in test [9] is monkey MET on fasMET-NIH3T3 cells (monkey (Macaca fascicularis)). The test can be described thus: flow cytometry on fasMET-NIH3T3 cells. Also: test concentration or dose not given here.
Sequence of monkey MET on fasMET-NIH3T3 cells (monkey (Macaca fascicularis)) (chain, as listed by the source limits assumed): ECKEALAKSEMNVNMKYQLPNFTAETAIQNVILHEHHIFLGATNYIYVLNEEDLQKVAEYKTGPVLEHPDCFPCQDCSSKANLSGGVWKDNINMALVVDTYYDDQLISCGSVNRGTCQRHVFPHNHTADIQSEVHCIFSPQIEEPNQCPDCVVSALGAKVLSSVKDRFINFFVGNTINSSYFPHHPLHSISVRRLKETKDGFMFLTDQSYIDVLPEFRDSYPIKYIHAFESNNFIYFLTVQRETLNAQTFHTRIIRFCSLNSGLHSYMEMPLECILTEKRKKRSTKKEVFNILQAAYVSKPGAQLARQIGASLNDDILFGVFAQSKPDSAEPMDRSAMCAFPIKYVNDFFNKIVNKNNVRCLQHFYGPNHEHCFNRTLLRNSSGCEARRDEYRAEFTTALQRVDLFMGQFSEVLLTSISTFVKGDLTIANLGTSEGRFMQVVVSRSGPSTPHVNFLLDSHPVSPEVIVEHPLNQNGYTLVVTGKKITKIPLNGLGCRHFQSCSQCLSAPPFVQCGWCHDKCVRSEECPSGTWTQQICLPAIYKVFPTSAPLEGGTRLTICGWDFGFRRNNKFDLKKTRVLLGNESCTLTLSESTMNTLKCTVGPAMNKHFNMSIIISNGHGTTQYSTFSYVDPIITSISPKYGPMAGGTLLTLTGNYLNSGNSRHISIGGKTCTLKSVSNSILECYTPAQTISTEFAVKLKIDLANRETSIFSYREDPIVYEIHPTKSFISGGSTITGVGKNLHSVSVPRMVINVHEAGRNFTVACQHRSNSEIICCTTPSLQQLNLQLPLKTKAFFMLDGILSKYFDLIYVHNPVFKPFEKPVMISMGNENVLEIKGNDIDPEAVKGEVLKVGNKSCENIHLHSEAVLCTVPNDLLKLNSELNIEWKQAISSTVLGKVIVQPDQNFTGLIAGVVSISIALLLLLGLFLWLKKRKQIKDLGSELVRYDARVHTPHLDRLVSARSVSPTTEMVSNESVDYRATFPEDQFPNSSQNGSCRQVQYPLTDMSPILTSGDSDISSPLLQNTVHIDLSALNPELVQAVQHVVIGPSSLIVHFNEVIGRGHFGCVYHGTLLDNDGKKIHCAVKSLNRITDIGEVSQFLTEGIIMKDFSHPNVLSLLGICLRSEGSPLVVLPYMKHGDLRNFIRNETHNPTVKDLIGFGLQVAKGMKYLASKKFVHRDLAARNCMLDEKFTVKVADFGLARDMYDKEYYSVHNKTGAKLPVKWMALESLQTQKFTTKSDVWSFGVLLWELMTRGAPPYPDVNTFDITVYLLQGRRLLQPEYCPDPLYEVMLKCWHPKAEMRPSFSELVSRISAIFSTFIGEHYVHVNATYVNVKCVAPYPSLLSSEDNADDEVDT
The target in test [10] is human MET on hMET-NIH3T3 cells (human, UniProt P08581 25-1390). The test can be described thus: flow cytometry on hMET-NIH3T3 cells. Also: test concentration or dose not given here.
Sequence of human MET on hMET-NIH3T3 cells (P08581 25-1390 limits assumed): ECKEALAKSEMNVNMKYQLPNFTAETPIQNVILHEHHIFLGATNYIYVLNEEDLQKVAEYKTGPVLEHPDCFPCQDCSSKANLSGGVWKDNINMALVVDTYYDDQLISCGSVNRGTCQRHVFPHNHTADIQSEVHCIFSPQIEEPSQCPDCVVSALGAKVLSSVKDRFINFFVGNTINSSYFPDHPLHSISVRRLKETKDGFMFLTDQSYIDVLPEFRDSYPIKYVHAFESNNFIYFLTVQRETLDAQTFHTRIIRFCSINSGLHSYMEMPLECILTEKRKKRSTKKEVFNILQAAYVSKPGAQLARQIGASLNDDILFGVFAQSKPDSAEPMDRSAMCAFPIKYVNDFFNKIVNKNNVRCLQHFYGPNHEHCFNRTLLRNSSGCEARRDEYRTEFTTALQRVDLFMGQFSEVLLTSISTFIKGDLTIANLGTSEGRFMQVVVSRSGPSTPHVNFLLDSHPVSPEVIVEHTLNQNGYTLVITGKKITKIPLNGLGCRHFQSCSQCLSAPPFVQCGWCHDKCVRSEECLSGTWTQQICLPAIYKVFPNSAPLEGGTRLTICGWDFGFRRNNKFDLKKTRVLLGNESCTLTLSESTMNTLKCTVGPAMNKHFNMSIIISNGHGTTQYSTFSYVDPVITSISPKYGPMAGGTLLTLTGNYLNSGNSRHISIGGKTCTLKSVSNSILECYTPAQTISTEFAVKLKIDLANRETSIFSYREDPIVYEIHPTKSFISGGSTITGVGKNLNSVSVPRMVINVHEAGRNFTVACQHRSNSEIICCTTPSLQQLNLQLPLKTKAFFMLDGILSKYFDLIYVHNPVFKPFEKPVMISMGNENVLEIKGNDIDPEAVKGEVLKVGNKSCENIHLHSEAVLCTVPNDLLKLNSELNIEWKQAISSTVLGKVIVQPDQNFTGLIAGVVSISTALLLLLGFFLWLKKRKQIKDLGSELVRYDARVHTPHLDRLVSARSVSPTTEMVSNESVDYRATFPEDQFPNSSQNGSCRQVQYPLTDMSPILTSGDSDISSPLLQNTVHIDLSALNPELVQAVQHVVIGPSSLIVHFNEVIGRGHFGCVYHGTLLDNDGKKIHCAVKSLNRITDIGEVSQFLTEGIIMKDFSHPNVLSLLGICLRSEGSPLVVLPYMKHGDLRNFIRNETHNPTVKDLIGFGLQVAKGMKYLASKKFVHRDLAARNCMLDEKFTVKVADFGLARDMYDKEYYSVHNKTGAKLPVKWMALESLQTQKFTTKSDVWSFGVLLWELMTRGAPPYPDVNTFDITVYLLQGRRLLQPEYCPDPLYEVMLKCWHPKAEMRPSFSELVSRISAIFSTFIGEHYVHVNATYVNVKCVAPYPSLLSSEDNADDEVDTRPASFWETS
The target in test [11] is T1, monkey EGFR on CHO-S-fasEGFR cells. The test can be described thus: flow cytometry on CHO-S-fasEGFR cells. Also: test concentration or dose not given here. This is another data set of the same source.
In test [12] the target is T3, His-tagged monkey EGFR protein. The test can be described thus: SPR (Biacore 8K), antibody on Protein A chip. The source holds these as a separate data set.
Test [13] has as its target T4, His-tagged human EGFR protein. The test can be described thus: SPR (Biacore 8K), antibody on Protein A chip. This is another data set of the same source.
In test [14] the target is T2, human EGFR on CHO-S-hEGFR cells. The test can be described thus: flow cytometry on CHO-S-hEGFR cells. This is another data set of the same source.

What is called Kd is the constant that tells how readily two partners part at equilibrium. By koff is commonly meant the rate constant with which the complex falls apart. As a reminder, the kon is the second-order rate constant of association.

Read-outs that look alike come from different tables or passages of the source.

T5 sequence (P08581 25-932 limits assumed): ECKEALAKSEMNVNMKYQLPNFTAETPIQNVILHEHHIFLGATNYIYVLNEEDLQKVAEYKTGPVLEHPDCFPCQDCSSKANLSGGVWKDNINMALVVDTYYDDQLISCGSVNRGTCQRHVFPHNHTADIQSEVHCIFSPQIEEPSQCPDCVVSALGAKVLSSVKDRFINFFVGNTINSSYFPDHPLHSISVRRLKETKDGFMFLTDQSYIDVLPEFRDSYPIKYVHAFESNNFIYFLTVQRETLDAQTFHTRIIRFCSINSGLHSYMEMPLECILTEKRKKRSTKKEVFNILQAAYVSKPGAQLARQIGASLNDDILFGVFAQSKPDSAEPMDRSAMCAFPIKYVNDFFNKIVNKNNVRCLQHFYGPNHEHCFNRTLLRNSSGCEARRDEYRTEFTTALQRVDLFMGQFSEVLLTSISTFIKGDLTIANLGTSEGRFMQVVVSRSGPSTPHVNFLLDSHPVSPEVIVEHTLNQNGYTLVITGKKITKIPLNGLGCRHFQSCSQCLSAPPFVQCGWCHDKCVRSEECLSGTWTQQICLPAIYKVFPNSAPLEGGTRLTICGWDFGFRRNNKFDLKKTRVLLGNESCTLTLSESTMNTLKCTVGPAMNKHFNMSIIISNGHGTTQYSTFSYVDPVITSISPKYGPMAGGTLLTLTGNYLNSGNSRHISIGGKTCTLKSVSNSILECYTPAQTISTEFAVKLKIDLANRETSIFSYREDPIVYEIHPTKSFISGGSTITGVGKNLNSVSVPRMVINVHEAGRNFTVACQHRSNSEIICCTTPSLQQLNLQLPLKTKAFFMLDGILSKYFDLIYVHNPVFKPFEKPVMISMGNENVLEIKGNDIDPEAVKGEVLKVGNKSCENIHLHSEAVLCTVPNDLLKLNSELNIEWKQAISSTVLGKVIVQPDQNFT

B1: E-3A8 (antibody, V domains shown)
VH: EVQLVESGGGLVQPGGSLRLSCAVSGFIFSSYEMNWVRQAPGKGLEWVSYISSSGSTIYYADSVKGRFTISRDNAMNSLNLQMNSLRDEDTAVYYCVRVWYSSGWSGCFAYWGQGSLVTVSS
VL: not shown
For B1, the “Percentage of Positive Cells” value in [1] worked out at 23.8%. Moreover, the “Percentage of Positive Cells” value in test [2] amounted to 31.2%. In test [3], this molecule displayed a Kd of 21.3 nM, a koff of 0.00104 s⁻¹ and a kon of 48700 M⁻¹ s⁻¹. In [4], this molecule yielded a Kd of 23.2 nM, a koff of 0.00101 s⁻¹ and a kon of 43500 M⁻¹ s⁻¹.

B2: E-3D8 (antibody, V domains shown)
VH: EVQLVESGGGLVQPGGSLRLSCAASGFIFSSYEMNWVRQAPGKGLEWVSYISSSGSTIYYADSVKGRFTISRDNAKNSLYLQMNSLRADDTAIYYCARVWYSSGWSGCFAYWGQGTLVTVSS
VL: not shown
For B2, the “Percentage of Positive Cells” value amounted to 24.1% in test [1] and 28.8% in [2]. Also, the Kd in test [3] is 34 nM; in [4], 39 nM. The koff in [3] and in [4] was 0.00132 s⁻¹ each time. The kon in test [3] was 38700 M⁻¹ s⁻¹; in test [4], 33900 M⁻¹ s⁻¹.

B3: E-6C4-M-2F11 (bispecific antibody)
VH 1: QVQLQQWGPGLVKPSQTLSLTCTVSGGSINSGDYYWSWIRQPPGKGLESIGYIYYSGSTYYNPSLKSRVTISADTSKNQFSLKLTSVTAADTAVYYCARERVYSSSLDYWGQGTLVTVSS
VH 2: EVQLVESGPGLVKPSETLSLTCTVSGGSISSNYWSWIRQPPGKGLEWIGYIYHSGSTNYNPSLKSRVTISVDTSKNQFSLKLSSVTAADTAVYFCARGPVSIFGVVKYIDLWGRGTLVTVSS
light: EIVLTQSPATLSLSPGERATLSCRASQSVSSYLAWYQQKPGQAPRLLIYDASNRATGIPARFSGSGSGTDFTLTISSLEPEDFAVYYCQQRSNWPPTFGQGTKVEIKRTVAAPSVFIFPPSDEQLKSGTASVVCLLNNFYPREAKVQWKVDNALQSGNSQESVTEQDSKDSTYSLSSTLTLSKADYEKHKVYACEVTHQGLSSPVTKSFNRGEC
notes: also called anti-EGFR/MET bispecific antibody E-6C4-M-2F11
Take B3: in test [5], binding was characterised by a dissociation constant (Kd) of 115 nM, the koff was 0.0198 s⁻¹ and the kon was 172000 M⁻¹ s⁻¹. In test [6], this molecule returned a Kd of 70.7 nM, a koff of 0.0215 s⁻¹ and an on-rate constant (kon) of 304000 M⁻¹ s⁻¹. In [7], the Kd is 50.5 nM, the koff was determined as 0.00187 s⁻¹ and the kon was 37000 M⁻¹ s⁻¹.

B4: E-6C4-M-2G10 (bispecific antibody)
VH 1: QVQLQQWGPGLVKPSQTLSLTCTVSGGSINSGDYYWSWIRQPPGKGLESIGYIYYSGSTYYNPSLKSRVTISADTSKNQFSLKLTSVTAADTAVYYCARERVYSSSLDYWGQGTLVTVSS
VH 2: EVQLVESGGGVVQPGRSLRLSCAASGFTFNICGIHWVRQAPGKGLEWVATISHDANDKYYADSVKGRFTISRDNSKNTLYLQMNSLRAEDTAVYYCARDGNRGYDGYFDYWGQGTLVTVSS
light: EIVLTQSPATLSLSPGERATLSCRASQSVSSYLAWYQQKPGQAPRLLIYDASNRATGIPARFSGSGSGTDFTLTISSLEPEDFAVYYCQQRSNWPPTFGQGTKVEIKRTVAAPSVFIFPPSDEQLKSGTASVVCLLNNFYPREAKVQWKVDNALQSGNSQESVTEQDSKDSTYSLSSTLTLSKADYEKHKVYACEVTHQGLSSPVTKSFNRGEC
notes: also called anti-EGFR/MET bispecific antibody E-6C4-M-2G10
B4: the Kd in test [5] was determined as 80.9 nM; in [6], 53.1 nM; in test [7], 41.7 nM. Besides, the values for the koff in test [5], in test [6] and in [7] were 0.011 s⁻¹, 0.0174 s⁻¹ and 0.00165 s⁻¹, respectively. For the same molecule, the values for the kon in [5], in test [6] and in test [7] were 136000 M⁻¹ s⁻¹, 328000 M⁻¹ s⁻¹ and 39500 M⁻¹ s⁻¹, respectively.

B5: M-8D9 (antibody, V domains shown)
VH: QVQLQESGPGLVKPSETLSLTCTVSGGSISGHYWSWIRQSPGKGLEWIGYITYSGSTNYNPSLKSRVTISVDTSKNQFSLKLSSVTAADTAVYYCGTIAVAGRVYYYGVDVWGRGTTVTVSS
VL: not shown
B5: in test [8], the Kd was 18.6 nM, the koff is 0.000505 s⁻¹ and the kon turned out to be 27100 M⁻¹ s⁻¹. Also, in test [9], the “Percentage of Positive Cells” value amounted to 65.3%. The “Percentage of Positive Cells” value in [10] stood at 99.8%.

B6: E-9A6 (antibody, V domains shown)
VH: EVQLQQSGPGLVKPSQTLSLTCTVSGGSISSGDYYWNWIRQPPGKGLEWIGYIYYSGSTYYNPSLKSRVTISVDTSKNQFSLKLSSVTAADTAVYYCAREGVYTIMVDYWGQGTLVTVSS
VL: not shown
In the case of B6, the “Percentage of Positive Cells” value turned out to be 55.4% in test [11] and 56.9% in [14]. The values for the Kd in test [12] and in test [13] were 12.6 nM and 9.44 nM, respectively. Also, the koff is 0.00173 s⁻¹ in test [12] and 0.00176 s⁻¹ in [13]. Besides, the kon came to 138000 M⁻¹ s⁻¹ in [12] and 186000 M⁻¹ s⁻¹ in test [13].

B7: E-6C4 (antibody, V domains shown)
VH: QVQLQQWGPGLVKPSQTLSLTCTVSGGSINSGDYYWSWIRQPPGKGLESIGYIYYSGSTYYNPSLKSRVTISADTSKNQFSLKLTSVTAADTAVYYCARERVYSSSLDYWGQGTLVTVSS
VL: not shown
On to B7, for which the figures for the “Percentage of Positive Cells” value in [1] and in [2] were 25.4% and 26.4%, respectively. The Kd in [5] was 158 nM; in test [3], 90.3 nM. Further, in test [7], the binding result is “no binding (tested: antigen up to 400 nM)”.

B8: E-9D2 (antibody, V domains shown)
VH: EVQLQESGPGLVKPSQTLSLTCTVSGGSISSGDYYWSWIRQPPGKGLEWIGYIYYSGSTYYNPSLKSRVTISVDTSKNQFSLRLSSVTAADTAVYYCARDLVYYYALDVWGQGTTVTVSS
VL: not shown
Regarding B8, the “Percentage of Positive Cells” value in [11] is 45.9%; in test [14] it was 38.7%. Besides, the figures for the Kd in test [12] and in test [13] were 99.8 nM and 60.3 nM, respectively. In addition, the koff in [12] came out at 0.0203 s⁻¹; in test [13], 0.0152 s⁻¹. Also, the kon in [12] was determined as 203000 M⁻¹ s⁻¹; in [13] it was 252000 M⁻¹ s⁻¹.

B9: E-9H2 (antibody, V domains shown)
VH: EVQLVESGPGLVKPSQTLSLTCTVSGDSISSGDYYWSWIRQPPGKGLEWIGYIYYSGSTYYNPSLKSRVIISLDTSKNQFSLKLISVTAADTAVYYCARVGVYSTSRDYWGQGTLVTVSS
VL: not shown
Take B9: the “Percentage of Positive Cells” value in [11] stood at 41.5%. In [12], the Kd came to 152 nM, the koff came out at 0.0177 s⁻¹ and the kon was determined as 117000 M⁻¹ s⁻¹. In test [13], this molecule yielded a Kd of 98.3 nM, a koff of 0.0151 s⁻¹ and a kon of 154000 M⁻¹ s⁻¹. Besides, in [14], the “Percentage of Positive Cells” value came to 44.3%.

B10: E-9F3 (antibody, V domains shown)
VH: QVQLQESGPGLVKPSQTLSLTCTVSGGSINSGDYYWSWIRQPPGKGLEWIGHIYYSGITYYNPSLKSRVTISADTSKNQFSLKLTSVTVADTAVYYCDRAGVYHDMDVWGQGTTVTVSS
VL: not shown
For the molecule B10, the “Percentage of Positive Cells” value in test [11] was 53.7%. In [12], this molecule gave a Kd of 39.9 nM, a koff of 0.0019 s⁻¹ and a kon of 47600 M⁻¹ s⁻¹. Besides, in [13], the Kd stood at 27.2 nM, the koff came to 0.00177 s⁻¹ and the kon came to 64900 M⁻¹ s⁻¹. Also, the “Percentage of Positive Cells” value in test [14] amounted to 53.1%.

B11: E-2B7 (antibody, V domains shown)
VH: EVQLQQWGPGLVKPSQTLSLTCTVSGGSINSGDYYWSWIRQPPGKGLEWIGYIYYSGSTYYNPSLKSRVTISLDTSKNQLSLKLSSVTAADTAVYYCARNNDFGDYLYFDNWGQGTLVTVSS
VL: not shown
Take B11: the results for the “Percentage of Positive Cells” value in test [1] and in [2] were 28.6% and 26.1%, respectively. The Kd in test [5] stood at 6.49 nM; in [6], 4.22 nM; in [3], 5.32 nM; in test [4], 4.69 nM. In addition, the koff in [5] stood at 0.000296 s⁻¹; in [6], 0.000301 s⁻¹; in [3], 0.000342 s⁻¹; in test [4], 0.000286 s⁻¹. For the same molecule, the kon in [5] amounted to 45600 M⁻¹ s⁻¹; in [6] it was 71500 M⁻¹ s⁻¹; in test [3], 64300 M⁻¹ s⁻¹; in [4] it was 61000 M⁻¹ s⁻¹. In [7], the binding result is “no binding (tested: antigen up to 400 nM)”.

B12: E-2B7-M-2F11 (bispecific antibody)
VH 1: EVQLQQWGPGLVKPSQTLSLTCTVSGGSINSGDYYWSWIRQPPGKGLEWIGYIYYSGSTYYNPSLKSRVTISLDTSKNQLSLKLSSVTAADTAVYYCARNNDFGDYLYFDNWGQGTLVTVSS
VH 2: EVQLVESGPGLVKPSETLSLTCTVSGGSISSNYWSWIRQPPGKGLEWIGYIYHSGSTNYNPSLKSRVTISVDTSKNQFSLKLSSVTAADTAVYFCARGPVSIFGVVKYIDLWGRGTLVTVSS
light: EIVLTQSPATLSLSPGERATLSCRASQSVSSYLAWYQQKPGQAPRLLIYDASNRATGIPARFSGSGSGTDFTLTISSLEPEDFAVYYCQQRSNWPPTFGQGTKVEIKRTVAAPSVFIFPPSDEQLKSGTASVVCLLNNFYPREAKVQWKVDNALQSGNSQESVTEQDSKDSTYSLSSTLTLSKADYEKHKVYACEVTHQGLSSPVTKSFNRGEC
notes: 1+1 IgG1 bispecific with knobs-into-holes and a common light chain: first VH is the EGFR arm (E-2B7), second VH the MET arm (M-2F11); also called anti-EGFR/MET bispecific antibody E-2B7-M-2F11
In test [5], B12 showed a Kd of 11.8 nM, a koff of 0.000522 s⁻¹ and a kon of 44300 M⁻¹ s⁻¹. In test [6], this molecule gave a Kd of 6.82 nM, a koff of 0.000503 s⁻¹ and a kon of 73800 M⁻¹ s⁻¹. In test [7], this molecule registered a Kd of 28.1 nM, a koff of 0.00109 s⁻¹ and a kon of 38700 M⁻¹ s⁻¹.
